B1: TPR t1 (parent)
chain: GACCAAUCUGCCCUCAGAGCUCGAGAACAUCUUCGGAUGCAGAGGAGGCAGGCUUCGGUGGCGCGAUAGCGCCAACGUCCUCAACCUCCAAUGCAUCCCACCACAUGAUGAUGCCUGAAGAGCCUUGGUUUUUUG

Variants of: B1
Experiment: polymerase ribozyme fitness, log enrichment relative to wild type (log ratio); higher = more active; in vitro selection for triplet polymerase activity
Outline: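 Both subunits of a heterodimeric triplet polymerase ribozyme were given their own mutant library, built by PCR and transcribed. Each library was annealed with a biotinylated primer, the partner subunit and triplets, incubated frozen at −7 °C, and its extended constructs gel-excised, captured on streptavidin beads and amplified by RT-PCR, all in one round done in triplicate. Fitness is the logarithm of genotype enrichment relative to wild-type enrichment, with replicates averaged by inverse-variance weighting. That logarithm is base 2, and Illumina-sequenced genotypes needed ≥10 input reads and ≥1 read per output.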

Going from GACCACUCUGCCCUGAGAGCUCGAGAACAUCUUCGGAUGCAGAGGCGGCAGGCUUCGGUGGCGCGAUAGCGCCAACGUCCUCAACCUCCAAUGCAUCCCACCACAUUAUGAUGCCUCAAGAGCCUUGGUUUUUUG to GACCACUCUGCCCUCAGAGCUCGAGAACAUCUUCGGGUGCAGAGGACGCAGGCUUCGGUGGCGUGAUAGCGCCAACGUCCUCAACCACCAAUGCAUCCCACCACAUGAUGAUGCCUGAACAGCGUUGGUUUUUUG, the “polymerase ribozyme fitness (log ratio)” value rises from -4.61 to -2.79.

First: GACCACUCUGCCGUCAGAGCUCGAGAACAUCUUCGGAUGCAGAGGAGGCAGGCUUCGGUGGCGCGAUAACGCCAACGUCCUCAACCUCCAAUGCAUCCCACCACAUGAUGAUGCCUGAAGAGCCUUGGUUUUUUG
Second: GACCACUCUGCGCUCAGAGCUCGAGAACAUCUUCGGAUGCAGAGGAGGCAGGCUUCUGUGGCGCGAUAGCGCCAACGUCCUCAACCUCCAAUGCAUCCCACCACAUGAUGAUGCCUGAAGAGCCUUGGUUUUUUG
The “polymerase ribozyme fitness (log ratio)” value of the first is lower: -3.82 for the first, -0.469 for the second.

Going from GACCACUCUGACCUCAGAGCUCGAGAACAUCUUCGGAUGCAGAGGAGGCAGGCUUCGGUGGCGCGAUAGCGGCAACGUCCUCAAUCUCCAAUGCAUCCCACCACAUGAUGAGGCCUGAAGAGCCUUGGUUUUUUG to GACCACUAUGCCCUCAGAGCUCGAGAACAUCUUCGGAUGCAGAGGAGGAAGGCUUUGGUGGCGCGAUAGCGCCAACGUCCUCAACCUCCAAUGCAUCCCACCACAUGAUGAUGCCUGAAGAGCCUUGGUUUUUUG, the “polymerase ribozyme fitness (log ratio)” value rises from -2.46 to -0.31.

Going from GACCACUCUGCCCUCAGAGCUCGAGAACAUCUUCGGAUGCAGAGGAGGCAGGCUUCGGUGGCGCGAUAGCGCCAACGUCCUCAACCUCCAAUGCAUCCCACCACAUGAUGAUGCCUGAAGUGCCUUGGUUUUUUG to GACCACUGUGCCCUCAGAGCUCGAGAACAUCUUCGGAUGCAGACGAGGCAGGCUUCGGUGGCGUGAUAGCGCCAACGCCCUCAACCUCCAAUGCAUCCCACCACAUGAUGAUGCCUGAAGAGCCUUGGUUUUUUG, the “polymerase ribozyme fitness (log ratio)” value falls from 1.95 to -1.41.

Going from GACCACUAUGCCGUCAGAGCUCGAGAACAUCUUCGGAUGCAGUGGAGGCAGGCUUCGGUGGCGCGAUACCGCCAACGUCCUCAACCUACAAUGCAUCCCACCACAUGAUGAUGCCUGAAGAGCCUUGGUUUUUUG to GACCACUCUGUCCUCAGAGCUCGAGAACAUCUUCGGAUGCAGAGGAGGCAGGCUUCGGUGGCCCGAUAGCGCCAACGUCCUCAACCUCCAAUGCAUCCCACCACAUGAUGAUGCCUGAAGAGCCUUGGUUUUUUG, the “polymerase ribozyme fitness (log ratio)” value rises from -2.92 to -1.94.

Going from GACCACUCUGCCCUCAGAGCUCGAGAACAUCUUCGGAUGCAGAGGAGGCAGGCUUCGGUGGCGCGAUAGCGCCAACGUCCUCAACCUCCAAUGCAUCCCACCACAUGGUGAUGCUUGAAGAGCCUUGGUUUUUUG to GACCACUCUGCCCUCAGAGCUCGAGAACAUCUUCGGAUGCAGAGGAGGCAGGCUUCGGUGGCGCGAUAGCGCCAACGUCCUCAACCUCCAAUGCGUCCCACUACAUGAUGAUGCCUGAAGAGCGUUGGUUUUUUG, the “polymerase ribozyme fitness (log ratio)” value rises from -5 to -0.561.

Going from GACCACUCUGCCCUCAGAGCUCGAGAACAUCUUCGGAUGCAGAGGAGGCCGGCUUCGGUGGCGCGAUAGAGCCAACGUCCUCAACCUCCAAUGCAUCCCACCACAUGAUGAUGCCUGAAGAGCCUUUGUUUUUUG to GACCACUCUGCCCUCAGAGCUCGAGAACAUCUUCGGAUGCAGAGGAGGCAGGCUUCGGUGGCGCGAUAGCGCCAACGUCCUCAACCUCCAAUGCAUCCCACCACAUGAUGAUGCCUGUAGAGCCUUGGUUUUUUG, the “polymerase ribozyme fitness (log ratio)” value rises from -4.88 to 0.712.

First: GACCACUCUGCCCUCAGAGCUCGAGAACAUCUUCGGAUGCAGAGGAGGCAGGCUUCGGUGGCGCGAUAGCGCCAACGUCCUCAACCUCCAAUGCAUCCCACCACCUGAUGAUGCCUGAAGAGCCUUGGUCUUUUG
Second: GACCACUCUGCCCUCAGAGCUCGAGACCAUCUUCGGAUGCAGAGGAGGCAGGCUUCGGUGGCGCGAUAGCGCCAACGUCCUCAACCUCCAAUGCAUCCCACCACAUGAUCAUGCCUGAAGAGCCUUGGUCUUUUG
The “polymerase ribozyme fitness (log ratio)” value of the first is higher: -1.78 for the first, -6.2 for the second.

Going from GACCACUCUGCCUUCAGAGCUCGAGAACAUCUUCGGCUGCAGAGGAGGCAGGCUUCGGUGGCGCGAUAUCGCCAACGUCCUCAACCUCCAAUGCAUCGCACCACAUGAUGAUGCCUGAAGAGCCUUGGUUUUUUG to GACCACUCUGCCCUCAGAGCUCGAGAACAUCUUCGGAUGAAGAGGAGGCAGGCUUCGGUGGCGCGAUAGGGCCAACGUCCUCAACCUCCAAUGCAUCCCACCACAUGAUGAUGCCUGAAGAGCCUUGGUUUUUUG, the “polymerase ribozyme fitness (log ratio)” value falls from -4.9 to -5.35.

Compared with GACCACUCUGCCCUAAGAGCUCGAGAACAUCUGCGGAUGCAGAGGAGGCAGGCUUCGGUGGCGCGAUAGCGCCAACGUCCUCAACCUCCAAUGCAUCCCACCACAUGAUGAUGCCUGAAGAGCGUUGGUUUUUUG, GACCACUCUGCCCUCAGAGCUCGAGAACUUCUUCGGAUGCAGAGGAGGCAGUUUUCGGUGGCGCGAUAGCGCCAACGUCCUCAACCUCCAAUGCAUCCCACCACAUGAUGAUGCCUGAAAAGUCUUGGUUUUUUG is higher in “polymerase ribozyme fitness (log ratio)” value: -5.85 for the first, -2.96 for the second.

Compared with GACCACUCUGCCUUCAGAGCUCGAGAACAUCUACGGAUGCAGAGUAGGCACGCUUCGGUGGCGCGAUUGCGCCAACGUCCUCAACCUCCAAUGCAUCCCACCACAUGAUGAUGCCUGAAGUUCCUUGGUUUUUUG, GACCACUCUGCCCUCAGAGCUCGAGAACAUCUUCGGAUGAAGAGGAGGCAGGCUUCGGUGGUGCGAUAGCGCCAACGUCCUCAACCUACAAUGCAUCCCACCAAAUGAUGAUGCCUGAAGAGCCUUGGUUUUUUG is higher in “polymerase ribozyme fitness (log ratio)” value: -6.98 for the first, -5.43 for the second.

Compared with GACCACUCUGCUCUCAGAGCUCGAGAACAUCUUCGGAGGCAGAGGAGGCAGGCUUCGGUGGCGCGAUAGCGCCAACGUCUUCAACCUCCAAUGCAUCCCACCACAUGAUGAUGCCUGAAGAGCCUUGGUUUUUUG, GACCACUCUGACCUCAGCGCUCGAGAACAUCUUCGGAUGCAGAGGAGGCAGGCUUCGGUGGCGCGAUAGCGCUAACGUCCUCAACCUCCAAUGCAUCCCACCACAUGAUGAUGCCUGAAGAGCCUUGGUUUUUUG is lower in “polymerase ribozyme fitness (log ratio)” value: -1.42 for the first, -4.87 for the second.

Going from GACCACUCUGCACUCAGAGCUCGAGAACAUCUUCGGAUGCAGAGGAGGCAGUCUUCGGUGACGCGAUAGCGCCAACGUCCUCAACCUCCAAUGCAUCCCACCACAUGAUGAUGCCUGAAGAGCCUUGGUUUUUUG to GACCACUAUGCCCUCAGAGCUCGAGAACAUCUUCGGAUGCAGAGGAGGCAGGCUUCGGUGGCGCGAUAGCGCCAACGUCCUCAACCUCCAAUGCAUCCCACCACAUGAUGAUGCCUGAAGCGCCUUGGUUUUUUG, the “polymerase ribozyme fitness (log ratio)” value rises from -1.1 to 1.45.

First: GACCACUAUGCCCUCAGAGCUCGAGAACAUCUUCGGAUGCAGAGGAGGCAGGCUUCGGUGGCGCGUUAGCGCCAACGUCCUCAAUCUCCAAUGCAUCCCACCACAUGAUGAUGCCUGAAGAGCCUUGGUUUUUUG
Second: GACCACUCUGCACUCAGAGCUCGAGAACAUCUUCGGAUGCAGAGGAGGCAGGCUUCGGUGGCGCGAUAGCGCCAACGUCCUCAGCCUCCAACGCAUCCCACCACAGGAUGAUCCCUGAAGAGCCUUGGUUUUUUG
The “polymerase ribozyme fitness (log ratio)” value of the first is higher: -1.77 for the first, -5.99 for the second.

First: GACCACUCUGCCCUCAGAGCUCGAGAACAUCUUCGGCUGCAGAGGAGGCAGGCUUCGGUGGCGCGAUAGCGCCAACGUCCUCAACCUCCAAUGCAUCCCACCACAUGAUGAUGCCUGAAGAGCCUUGGUUUUUUG
Second: GACCACUCUGCUCUCAGAGCUCGAGAACAUCUUCGGAUGCAGAGGAGCCAGGCUUCGGUGGCGCGAUAGCGCCAACGGCCUCAACCUCCAAUGCAUCCCACCACAUGAUCAUGCCUGAAGAGCCUUGGUUUUUUG
The “polymerase ribozyme fitness (log ratio)” value of the first is higher: -0.884 for the first, -4.8 for the second.

Compared with GACCACUCUGCCCUCAGAGCUCGAGAACAUCUUCGGAUGCAGAGGAGGCAGGCUUCGGUGGCGCGAUGGCGCCAACGUCCUCAACCUCCAAUGCAUCCCACCACAUGAUGAUGCCUGAAGAGCCUUGGUUUUUUG, GACCACUCUGCCCUCAGAGCUCGAGAACUUCUUCGGAUGCAGAGGAGGCAGGCUUCGGUGGCGCGAUAGCGCCAACGUCCUCAACCUCCACUGCAUCCCACCACAUGAUGAUGCCUGAAGAGCCUUGGUUUUUUG is lower in “polymerase ribozyme fitness (log ratio)” value: -3.13 for the first, -4.88 for the second.

First: GACCACUCUGCCCUCAGAGCUCGAGAACAUCUUCGGAUGCAGGGGAGGCAGGCUUCGGUGGCUCGAUAACGCCAACGUCCUCAACCUCCAAUGCAUCCCACCACAUGAUGAUGCCUCAAGAGCCUUGGUUUUUUG
Second: GACCACUCUGCCCUCAGAGCUCGAGAACUUCUUCGGAUGCAGAGAAGGCAGGCUUCGGUGGCGCGAUAGCGCCAACGUCCUCAACCUCCAAUGCAUCCCACCACAUGAUGAUUCCUGAAGAGCCUUGGUUUUUUG
The “polymerase ribozyme fitness (log ratio)” value of the first is lower: -5.96 for the first, -4.91 for the second.

Going from GACCACUCUGCCCUCAGAGCUCGAGAACUUCUUCGGAUGCAGAGGAGGAAGGCUUCGGUGGCGCGCUAGCCCCAACGUCCUCAACCUCCAAUGCAUCCCACCACAUGAUGAUGCCUGAUGAGCCUUGGUUUUUUG to GACCACUCUGCCCUCAGAGCUCGAGAACAUCUUCGGAUGCAGAGGAGGCUGGCUUCGAUCGCGCGAUAGUGCCAACGUCCUCAACCUCCAAUGCAUCCCACCACAUGAUGAUGCCUGAAGAGCCUUGGUUUUUUG, the “polymerase ribozyme fitness (log ratio)” value rises from -4.4 to -3.42.

Compared with GACCACUCUGCCCUCAGAGCUCGAGAACAUCUUCGGAUGCAGAGGAGGCAGGCUUCGGUGGCGCGAUAGCGCCAACGUCCUCAACCUCCAAUGCAUCCCACCACGUGAUGACGCCUGAAGAGCCUUAGUUUUUUG, GACCACUCUGCCCUCAGAGCUCGAGAAGAACUUCGGAUGCAGAGGAGGCAUGCUUCGGUGGCGCGAUAAAGCCAACGUCCUCAACCUCCAAUGCAUCCCACCACAUGAUGAUGCAUGAAGAGCCUUGCUUUUUUG is lower in “polymerase ribozyme fitness (log ratio)” value: -2.69 for the first, -6.73 for the second.

Compared with GACCACUCUGCCAUCAGAGCUCGAGAACAUCUUCGGAUGCAGAGGAGCGAGGCUUCGGUGGCGCGAUAGCGCCAACGUCCUCAAACUCCAACGCAUCCCACCACAUGAUGAUGCCUGAAGAGCCUUGGUUUUUUG, GACCACUCUGCCCUCAGAGCUCGAGAACAUCUUCGGAUGCUGAGGAGGCAGGCUUCGGUGGCGCGAUAGCGCCAACGUCCUCAACCUCCAAUGCAUCCCACCACAAGAUGAUGCCUGAAGAGCCUUGGUUUUUUG is higher in “polymerase ribozyme fitness (log ratio)” value: -4.52 for the first, -1.37 for the second.

First: GACCACUAUGCCCUCAGAGCUCGAGAACAUCCUCGGAUGCAGAGGAGGCAGGCUUCGGUGGCGCGAUAGCGCCAACGUCCUCAUCCUCCGAUGCAUCCCACCACAUGAUCAUGUCUGAAGAGCCUUGGUUUUUUG
Second: GACCACUCUGCCUUCAGAGCUCGAGAUCAUCUUCGGAUGCAGAGGAGGCAGGCUUCGGUGGAGCGAUAGCGCCAACGUCCUAAACCUCCAAUGCAUCCCACCACAUGAUGAUGCCUGAAGAGCCUUGGUUUUUUG
The “polymerase ribozyme fitness (log ratio)” value of the first is lower: -5.68 for the first, -4.43 for the second.

From the RNAGym collection of RNA variant scans (doi:10.1073/pnas.2313332121)
